Test results published in PMC4055269 (Molecular Biology of the Cell, 2014).

Target: the molecule itself
Assay: SEC-MALS

B1: Drp1 C505A (enzyme, human, UniProt O00429-4 1-699, looked up)
chain: MEALIPVINKLQDVFNTVGADIIQLPQIVVVGTQSSGKSSVLESLVGRDLLPRGTGIVTRRPLILQLVHVSQEDKRKTTGEENGVEAEEWGKFLHTKNKLYTDFDEIRQEIENETERISGNNKGVSPEPIHLKIFSPNVVNLTLVDLPGMTKVPVGDQPKDIELQIRELILRFISNPNSIILAVTAANTDMATSEALKISREVDPDGRRTLAVITKLDLMDAGTDAMDVLMGRVIPVKLGIIGVVNRSQLDINNKKSVTDSIRDEYAFLQKKYPSLANRNGTKYLARTLNRLLMHHIRDCLPELKTRINVLAAQYQSLLNSYGEPVDDKSATLLQLITKFATEYCNTIEGTAKYIETSELCGGARICYIFHETFGRTLESVDPLGGLNTIDILTAIRNATGPRPALFVPEVSFELLVKRQIKRLEEPSLRCVELVHEEMQRIIQHCSNYSTQELLRFPKLHDAIVEVVTCLLRKRLPVTNEMVHNLVAIELAYINTKHPDFADAAGLMNNNIEEQRRNRLARELPSAVSRDKVASGGGGVGDGVQEPTTGNWRGMLKTSKAEELLAEEKSKPIPIMPASPQKGHAVNLLDVPVPVARKLSAREQRDCEVIERLIKSYFLIVRKNIQDSVPKAVMHFLVNHVKDTLQSELVGQLYKSSLLDDLLTESEDMAQRRKEAADMLKALQGASQIIAEIRETHLW
stoichiometry N: 2
